Experimental data as given in paper PMC11077064, “The origin recognition complex requires chromatin tethering by a hypervariable intrinsically disordered region that is functionally conserved from sponge to man”.
Several values for one entry are separate records, joined by “and”; a condition that tells them apart may be missing. Equal entries are not always repeated.

How the values were obtained:
Assay in all cases: fluorescence polarization
[1] = target: T1, DmORC holocomplex (Orc1-6) (Drosophila melanogaster) (UniProt O16810+Q24168+Q24169+Q9Y1B2); settings: EMSA: 50 mM HEPES pH 7.5, 150 mM K-glutamate, 10% glycerol, 1 mM BME, 2 nM DNA, RT 20 min, 1% agarose; FP: same with 150 or 300 mM K-glutamate, 5 mM MgOAc …
[2] = target: DmORC delta1IDR holocomplex Orc1:del248-549 (Drosophila melanogaster) (UniProt O16810+Q24168+Q24169+Q9Y1B2); settings: EMSA: 50 mM HEPES pH 7.5, 150 mM K-glutamate, 10% glycerol, 1 mM BME, 2 nM DNA, RT 20 min, 1% agarose, FP: same with 150 or 300 mM K-glutamate
[3] = tested on: DgOrc1 IDR (Dimorphilus gyrociliatus); settings: about 100 nM or less; EMSA: 50 mM HEPES pH 7.5, 150 mM K-glutamate, 10% glycerol, 1 mM BME, 2 nM DNA, RT 20 min, 1% agarose; FP: same with 150 or 300 mM K-glutamate, 5 mM MgOAc …
[4] = tested on: AqOrc1 IDR (Amphimedon queenslandica); settings: about 100 nM or less; EMSA: 50 mM HEPES pH 7.5, 150 mM K-glutamate, 10% glycerol, 1 mM BME, 2 nM DNA, RT 20 min, 1% agarose; FP: same with 150 or 300 mM K-glutamate, 5 mM MgOAc …
[5] = target: T1, DmORC holocomplex (Orc1-6) (Drosophila melanogaster); settings: EMSA: 50 mM HEPES pH 7.5, 150 mM K-glutamate, 10% glycerol, 1 mM BME, 2 nM DNA, RT 20 min, 1% agarose; FP: same with 150 or 300 mM K-glutamate, 5 mM MgOAc …; remark: listed apart in the source
[6] = tested on: AmOrc1 IDR (Acropora millepora); settings: about 100 nM or less; EMSA: 50 mM HEPES pH 7.5, 150 mM K-glutamate, 10% glycerol, 1 mM BME, 2 nM DNA, RT 20 min, 1% agarose; FP: same with 150 or 300 mM K-glutamate, 5 mM MgOAc …
[7] = tested on: MyOrc1 IDR (Mizuhopecten yessoensis); settings: about 100 nM or less; EMSA: 50 mM HEPES pH 7.5, 150 mM K-glutamate, 10% glycerol, 1 mM BME, 2 nM DNA, RT 20 min, 1% agarose; FP: same with 150 or 300 mM K-glutamate, 5 mM MgOAc …

T1 sequence (O16810 whole entry, chain 1 of 4): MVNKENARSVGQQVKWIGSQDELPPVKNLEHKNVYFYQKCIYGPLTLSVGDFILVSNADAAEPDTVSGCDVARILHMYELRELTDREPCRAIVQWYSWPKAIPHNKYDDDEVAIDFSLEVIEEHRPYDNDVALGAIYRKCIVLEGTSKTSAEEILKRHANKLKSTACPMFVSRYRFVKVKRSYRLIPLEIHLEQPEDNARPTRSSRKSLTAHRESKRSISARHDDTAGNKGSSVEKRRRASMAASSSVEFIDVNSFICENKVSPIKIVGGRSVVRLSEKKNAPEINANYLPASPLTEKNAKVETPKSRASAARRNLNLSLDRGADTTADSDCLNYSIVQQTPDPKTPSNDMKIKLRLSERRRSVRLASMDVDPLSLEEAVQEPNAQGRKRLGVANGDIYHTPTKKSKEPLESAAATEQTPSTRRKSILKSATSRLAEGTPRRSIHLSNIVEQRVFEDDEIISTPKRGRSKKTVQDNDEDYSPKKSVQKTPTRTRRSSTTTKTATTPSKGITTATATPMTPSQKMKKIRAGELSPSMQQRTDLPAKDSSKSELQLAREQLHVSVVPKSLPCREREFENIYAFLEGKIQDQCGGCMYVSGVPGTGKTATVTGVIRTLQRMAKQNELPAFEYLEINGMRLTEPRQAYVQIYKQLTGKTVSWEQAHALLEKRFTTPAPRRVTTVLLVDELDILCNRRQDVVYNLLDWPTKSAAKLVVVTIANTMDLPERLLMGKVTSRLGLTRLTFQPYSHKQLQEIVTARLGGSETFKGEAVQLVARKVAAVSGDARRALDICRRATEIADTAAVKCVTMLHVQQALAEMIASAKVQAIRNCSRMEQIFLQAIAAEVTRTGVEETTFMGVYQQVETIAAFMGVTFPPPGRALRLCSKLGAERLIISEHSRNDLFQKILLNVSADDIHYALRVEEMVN
T1 sequence (Q24168 whole entry, chain 2 of 4): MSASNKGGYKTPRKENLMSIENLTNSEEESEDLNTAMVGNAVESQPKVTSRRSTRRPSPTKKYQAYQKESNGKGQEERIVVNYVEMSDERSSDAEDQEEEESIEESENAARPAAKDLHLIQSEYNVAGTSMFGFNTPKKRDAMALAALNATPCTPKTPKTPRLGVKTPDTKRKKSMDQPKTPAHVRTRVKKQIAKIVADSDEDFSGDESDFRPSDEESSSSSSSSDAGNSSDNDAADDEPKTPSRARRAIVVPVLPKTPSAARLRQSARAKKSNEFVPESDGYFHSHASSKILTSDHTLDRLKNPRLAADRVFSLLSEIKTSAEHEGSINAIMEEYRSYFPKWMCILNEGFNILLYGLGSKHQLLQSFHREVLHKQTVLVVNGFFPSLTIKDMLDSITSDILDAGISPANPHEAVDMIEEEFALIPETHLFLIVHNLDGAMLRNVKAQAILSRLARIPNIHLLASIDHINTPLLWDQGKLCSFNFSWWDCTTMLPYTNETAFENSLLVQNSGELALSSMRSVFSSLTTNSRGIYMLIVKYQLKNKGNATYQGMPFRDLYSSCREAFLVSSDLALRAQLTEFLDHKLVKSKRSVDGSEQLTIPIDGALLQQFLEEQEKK
T1 sequence (Q24169 whole entry, chain 3 of 4): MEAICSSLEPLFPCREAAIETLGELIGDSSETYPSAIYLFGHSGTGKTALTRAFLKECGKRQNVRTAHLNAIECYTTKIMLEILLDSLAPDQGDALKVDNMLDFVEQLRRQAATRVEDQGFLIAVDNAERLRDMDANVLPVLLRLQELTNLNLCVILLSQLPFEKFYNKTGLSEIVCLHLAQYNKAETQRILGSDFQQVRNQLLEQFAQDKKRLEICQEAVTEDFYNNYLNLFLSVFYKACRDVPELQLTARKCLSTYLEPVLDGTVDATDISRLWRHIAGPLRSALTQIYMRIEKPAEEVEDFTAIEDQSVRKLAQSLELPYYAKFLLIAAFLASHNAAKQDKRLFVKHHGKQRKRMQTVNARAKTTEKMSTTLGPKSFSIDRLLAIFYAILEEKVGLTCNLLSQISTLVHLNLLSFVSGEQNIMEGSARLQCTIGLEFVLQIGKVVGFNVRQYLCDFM
T1 sequence (Q9Y1B2 whole entry, chain 4 of 4): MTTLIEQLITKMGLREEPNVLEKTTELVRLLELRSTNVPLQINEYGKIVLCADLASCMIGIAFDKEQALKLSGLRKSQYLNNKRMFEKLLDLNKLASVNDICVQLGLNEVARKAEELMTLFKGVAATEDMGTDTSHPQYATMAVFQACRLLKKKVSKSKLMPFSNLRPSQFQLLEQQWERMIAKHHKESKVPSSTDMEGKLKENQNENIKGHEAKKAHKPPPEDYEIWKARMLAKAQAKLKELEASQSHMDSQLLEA
Chain of DmORC delta1IDR holocomplex Orc1:del248-549 (Drosophila melanogaster) (O16810 whole entry, stated change not applied, chain 1 of 4): as the sequence (O16810 whole entry, chain 1 of 4) above
Chain of DmORC delta1IDR holocomplex Orc1:del248-549 (Drosophila melanogaster) (Q24168 whole entry, stated change not applied, chain 2 of 4): as the sequence (Q24168 whole entry, chain 2 of 4) above
Chain of DmORC delta1IDR holocomplex Orc1:del248-549 (Drosophila melanogaster) (Q24169 whole entry, stated change not applied, chain 3 of 4): as the sequence (Q24169 whole entry, chain 3 of 4) above
Chain of DmORC delta1IDR holocomplex Orc1:del248-549 (Drosophila melanogaster) (Q9Y1B2 whole entry, stated change not applied, chain 4 of 4): as the sequence (Q9Y1B2 whole entry, chain 4 of 4) above

Question: Which Kd [1] does the source give for “GAAGCTAGACTTAGGTGTCATATTGAACCTACTATGCCGAACTAGTTACGAGCTATAACC (double strand) [FITC-dsDNA 60 bp]” here?
Answer: 6 nM and 34 nM

Question: What about the Kd ([2]; 5 mM MgOAc …) of the same sequence?
Answer: 19 nM

Question: What about the Kd ([2]; no ATP, 150 mM KGlut, 5 mM MgOAc, severely impaired) of the same sequence?
Answer: > 1000 nM

Question: What about the Kd [3] of the same sequence?
Answer: 100 nM

Question: And the Kd [4]?
Answer: 100 nM

Question: What about the Kd [5] of the same sequence?
Answer: 7 nM

Question: And the Kd [6]?
Answer: 100 nM

Question: What about the Kd [7] of the same sequence?
Answer: 100 nM
